Results: patent US20260193348A1

How the values were obtained:
[1] = molecular target: GPRC5D (G-protein coupled receptor family C group 5 member D), human, on multiple myeloma cell lines (human) (UniProt Q9NZD1); experiment: cell-based or functional assay
[2] = molecular target: CD3 (Cluster of Differentiation 3 protein), human, on T cells / Jurkat cells (human) (UniProt P07766); experiment: FACS, CD3+ T cells isolated from normal donors
Sequence of CD3 (Cluster of Differentiation 3 protein), human, on T cells / Jurkat cells (human) (P07766 23-207, chain 1 of 3): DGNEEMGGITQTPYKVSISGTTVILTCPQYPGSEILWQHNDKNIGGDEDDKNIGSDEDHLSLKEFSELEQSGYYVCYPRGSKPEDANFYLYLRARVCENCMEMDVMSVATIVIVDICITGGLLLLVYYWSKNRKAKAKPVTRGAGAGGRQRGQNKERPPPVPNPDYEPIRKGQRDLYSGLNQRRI
Sequence of CD3 (Cluster of Differentiation 3 protein), human, on T cells / Jurkat cells (human) (P04234 22-171, chain 2 of 3, further chain): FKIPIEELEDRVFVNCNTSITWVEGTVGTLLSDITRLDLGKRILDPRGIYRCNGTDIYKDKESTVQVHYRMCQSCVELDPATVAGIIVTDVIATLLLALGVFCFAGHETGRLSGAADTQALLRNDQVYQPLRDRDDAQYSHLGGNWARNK
Sequence of CD3 (Cluster of Differentiation 3 protein), human, on T cells / Jurkat cells (human) (P09693 23-182, chain 3 of 3, further chain): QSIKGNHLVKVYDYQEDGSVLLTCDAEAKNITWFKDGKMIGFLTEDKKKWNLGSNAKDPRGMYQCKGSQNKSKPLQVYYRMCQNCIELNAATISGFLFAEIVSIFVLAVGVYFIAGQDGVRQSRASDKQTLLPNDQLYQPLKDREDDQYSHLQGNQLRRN

Sequence of GPRC5D (G-protein coupled receptor family C group 5 member D), human, on multiple myeloma cell lines (human) (Q9NZD1 whole entry): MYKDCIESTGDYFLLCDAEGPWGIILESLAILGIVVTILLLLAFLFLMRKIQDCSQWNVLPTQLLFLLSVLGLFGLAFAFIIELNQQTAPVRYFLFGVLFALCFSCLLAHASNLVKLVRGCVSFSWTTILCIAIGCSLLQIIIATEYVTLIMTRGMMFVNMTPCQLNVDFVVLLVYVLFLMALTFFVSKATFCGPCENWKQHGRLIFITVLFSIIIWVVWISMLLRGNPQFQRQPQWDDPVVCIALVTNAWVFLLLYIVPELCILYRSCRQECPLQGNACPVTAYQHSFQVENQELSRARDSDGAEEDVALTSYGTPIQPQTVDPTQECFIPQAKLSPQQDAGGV

Top (RLU), luciferase assay, L363 [1]: 23.4 RLU
Top (RLU), luciferase assay, MM.1S [1]: 30.7 RLU
Top (RLU), luciferase assay, RPMI8226 [1]: 5.33 RLU
Top (MFI) [2]: 124 MFI
Substance: IgG1 (antibody)
Top (%), T-Cell Dependent Cytotoxicity, MM.1S [1]: 6.08%
